Measured values as given in patent US20220332804A1 (CSL INNOVATION, published 2022).
Where a chain is given by its changes, count along the chain named.

Tests used:
Assay in all cases: SPR, mAb captured, C2 mutant analyte;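 also: Anti-C2 mAbs captured on goat anti-human IgG Biacore CM5 chips, alanine or serine C2 surface mutants flowed over at 37 °C, double-referenced sensorgrams fitted to a 1:1 binding model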
[1] = molecular target: T1, human C2 A472S (human, UniProt P06681 21-752)
T1 sequence: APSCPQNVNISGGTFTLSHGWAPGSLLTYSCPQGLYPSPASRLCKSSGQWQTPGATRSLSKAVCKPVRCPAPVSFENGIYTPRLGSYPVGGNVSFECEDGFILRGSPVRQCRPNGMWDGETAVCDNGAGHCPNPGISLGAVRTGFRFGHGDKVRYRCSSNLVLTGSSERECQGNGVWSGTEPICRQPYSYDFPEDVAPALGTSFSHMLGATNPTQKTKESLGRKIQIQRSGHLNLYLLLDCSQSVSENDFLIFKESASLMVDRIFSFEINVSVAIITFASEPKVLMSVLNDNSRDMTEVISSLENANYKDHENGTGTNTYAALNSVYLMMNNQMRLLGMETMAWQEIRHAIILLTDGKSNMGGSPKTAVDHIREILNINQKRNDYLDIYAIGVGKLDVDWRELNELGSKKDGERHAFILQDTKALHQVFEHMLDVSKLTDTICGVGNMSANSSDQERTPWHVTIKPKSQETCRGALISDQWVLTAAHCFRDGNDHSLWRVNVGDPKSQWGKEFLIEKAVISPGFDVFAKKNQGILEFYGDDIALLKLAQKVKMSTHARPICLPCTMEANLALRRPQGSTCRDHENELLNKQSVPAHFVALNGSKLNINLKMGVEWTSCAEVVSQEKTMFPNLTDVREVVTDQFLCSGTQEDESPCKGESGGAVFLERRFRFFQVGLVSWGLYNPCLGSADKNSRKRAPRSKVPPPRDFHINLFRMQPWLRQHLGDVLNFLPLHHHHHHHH

[2] = molecular target: T2, human C2 G677A (human, UniProt P06681 21-752)
T2 sequence: T1 sequence with S452A, G657A

[3] = molecular target: T3, human C2 M316A (human, UniProt P06681 21-752)
T3 sequence: T1 sequence with M296A, S452A

[4] = molecular target: T4, human C2 K415A (human, UniProt P06681 21-752)
T4 sequence: T1 sequence with K395A, S452A

B1: RF16-214 (antibody, V domains shown)
VH: EVQLLESGGGLVQPGGSLRLSCAASGFTFSWYQMMWVRQAPGKGLEWVSRIYPSGGGTAYADSVKGRFTISRDNSKNTLYLQMNSLRAEDTAVYYCARDAGYGDNWGQGTLVTVSS
VL: QSALTQPPSVSVSPGQTASITCSGDKLGEKYASWYQQKAGQSPVMVIYQDRKRPSGIPERFSGSNSGNTATLTISGTQAMDEADYYCQAWDTRAVVFGGGTKLTVLG
[1]
  Kd: 0.234 µM
[2]
  Kd: 0.0281 µM
[3]
  Kd: 0.0302 µM
[4]
  Kd: 0.046 µM
